Results taken from patent US20240115745A1 (3B PHARMACEUTICALS, published 2024).
*1 amine or outer side, *2 acyl side, *3 side chain or, on linkers, in order; H or OH if unused. Bridges are numbered along the chain shown (N, C = ends). Primed or numbered codes have the meaning given here. [ ]: non-standard residue; d: D form. The star is where a group is joined. mli = maleimide cyclization element: 3,4-maleimide inserted symmetrically, forming a vinyl thioether with each Cys sulfur; Ttds = 1,13-diamino-4,7,10-trioxatridecan-succinamic acid, NCCCOCCOCCOCCCNC(=O)CCC(=O)*; mli(DOTA-Ttd) = 3,4-N-(DOTA-Ttd)-maleimide bridging two Cys S atoms as vinyl thioethers; N4Ac = 6-carboxy-1,4,8,11-tetraazaundecane, NCCNCC(CNCCN)C(=O)*; Buur = n-butylaminocarbonyl blocking group, CCCCNC(=O)*; DOTA = O=C(O)CN1CCN(CC(=O)O)CCN(CC(=O)*)CCN(CC(=O)O)CC1; NODAGA = O=C(O)CN1CCN(CC(=O)O)CCN(C(CCC(=O)*)C(=O)O)CC1; Maleimide(3,4-diyl) = O=C1NC(=O)C([*:2])=C1[*:1]; Buur″ = n-butylaminocarbonyl, CCCCNC(=O)*; O2Oc = 3,6-dioxaoctanoic acid; β3hK = NCCCC[C@H](N)CC(=O)O; 4Amb = NCc1ccc(C(=O)O)cc1; hCys = N[C@@H](CCS)C(=O)O; Nle = CCCC[C@H](N)C(=O)O; Hexanoyl = CCCCCC(=O)*

B1: compound Hex-[Cys-Pro-Pro-Thr-Gln-Phe-Cys]-Asp-Lys(DOTA)-NH2 (1016) (peptide)
peptide: Hexanoyl-CPPTQFCDK(DOTA)-NH2
modifications: disulfide 1-7
SMILES: CCCCCC(=O)N[C@H]1CSSC[C@@H](C(=O)N[C@@H](CC(=O)O)C(=O)N[C@@H](CCCCNC(=O)CN2CCN(CC(=O)O)CCN(CC(=O)O)CCN(CC(=O)O)CC2)C(N)=O)NC(=O)[C@H](Cc2ccccc2)NC(=O)[C@H](CCC(N)=O)NC(=O)[C@H]([C@@H](C)O)NC(=O)[C@@H]2CCCN2C(=O)[C@@H]2CCCN2C1=O
B2: compound Hex-[Cys-Pro-Pro-Thr-Glu-Phe-Cys]-Asp-Lys(N4Ac)-NH2 (1021) (peptide)
peptide: Hexanoyl-CPPTEFCDK(N4Ac)-NH2
modifications: disulfide 1-7
SMILES: CCCCCC(=O)N[C@H]1CSSC[C@@H](C(=O)N[C@@H](CC(=O)O)C(=O)N[C@@H](CCCCNC(=O)C(CNCCN)CNCCN)C(N)=O)NC(=O)[C@H](Cc2ccccc2)NC(=O)[C@H](CCC(=O)O)NC(=O)[C@H]([C@@H](C)O)NC(=O)[C@@H]2CCCN2C(=O)[C@@H]2CCCN2C1=O
B3: compound Buur-[Cys-Pro-Pro-Thr-Glu-Phe-Cys]-Asp-Lys(DOTA)-NH2 (1015) (peptide)
peptide: Buur-CPPTEFCDK(DOTA)-NH2
modifications: disulfide 1-7
SMILES: CCCCNC(=O)N[C@H]1CSSC[C@@H](C(=O)N[C@@H](CC(=O)O)C(=O)N[C@@H](CCCCNC(=O)CN2CCN(CC(=O)O)CCN(CC(=O)O)CCN(CC(=O)O)CC2)C(N)=O)NC(=O)[C@H](Cc2ccccc2)NC(=O)[C@H](CCC(=O)O)NC(=O)[C@H]([C@@H](C)O)NC(=O)[C@@H]2CCCN2C(=O)[C@@H]2CCCN2C1=O
B4: compound Hex-[Cys-Pro-Pro-Thr-Glu-Phe-Cys]-Asp-Lys(DOTA)-NH2 (1013) (peptide)
peptide: Hexanoyl-CPPTEFCDK(DOTA)-NH2
modifications: disulfide 1-7
SMILES: CCCCCC(=O)N[C@H]1CSSC[C@@H](C(=O)N[C@@H](CC(=O)O)C(=O)N[C@@H](CCCCNC(=O)CN2CCN(CC(=O)O)CCN(CC(=O)O)CCN(CC(=O)O)CC2)C(N)=O)NC(=O)[C@H](Cc2ccccc2)NC(=O)[C@H](CCC(=O)O)NC(=O)[C@H]([C@@H](C)O)NC(=O)[C@@H]2CCCN2C(=O)[C@@H]2CCCN2C1=O
B5: compound Hex-[Cys-Pro-Pro-Thr-Glu-Phe-Cys]-Asp-Lys(NODAGA)-NH2 (1020) (peptide)
peptide: Hexanoyl-CPPTEFCDK(NODAGA)-NH2
modifications: disulfide 1-7
SMILES: CCCCCC(=O)N[C@H]1CSSC[C@@H](C(=O)N[C@@H](CC(=O)O)C(=O)N[C@@H](CCCCNC(=O)CCC(C(=O)O)N2CCN(CC(=O)O)CCN(CC(=O)O)CC2)C(N)=O)NC(=O)[C@H](Cc2ccccc2)NC(=O)[C@H](CCC(=O)O)NC(=O)[C@H]([C@@H](C)O)NC(=O)[C@@H]2CCCN2C(=O)[C@@H]2CCCN2C1=O
B6: compound Buur-[Cys-Pro-Pro-Thr-Glu-Phe-Cys]-Bhk(DOTA)-OH (1014) (peptide)
peptide: {Buur″}-CPPTEFC[β3hK](DOTA)-OH
modifications: disulfide 1-7
SMILES: CCCCNC(=O)N[C@H]1CSSC[C@@H](C(=O)N[C@@H](CCCCNC(=O)CN2CCN(CC(=O)O)CCN(CC(=O)O)CCN(CC(=O)O)CC2)CC(=O)O)NC(=O)[C@H](Cc2ccccc2)NC(=O)[C@H](CCC(=O)O)NC(=O)[C@H]([C@@H](C)O)NC(=O)[C@@H]2CCCN2C(=O)[C@@H]2CCCN2C1=O
B7: compound Hex-[Cys(mli)-Pro-Pro-Thr-Glu-Phe-Cys]-Bhk(DOTA)-OH (2011) (peptide)
peptide: Hexanoyl-CPPTEFC[β3hK](DOTA)-OH
modifications: linker 1-7 via Maleimide(3,4-diyl)
SMILES: CCCCCC(=O)N[C@H]1CSC2=C(SC[C@@H](C(=O)N[C@@H](CCCCNC(=O)CN3CCN(CC(=O)O)CCN(CC(=O)O)CCN(CC(=O)O)CC3)CC(=O)O)NC(=O)[C@H](Cc3ccccc3)NC(=O)[C@H](CCC(=O)O)NC(=O)[C@H]([C@@H](C)O)NC(=O)[C@@H]3CCCN3C(=O)[C@@H]3CCCN3C1=O)C(=O)NC2=O
B8: compound Hex-[Cys-Pro-Pro-Thr-Glu-Phe-Cys]-Bhk(DOTA)-OH (1012) (peptide)
peptide: Hexanoyl-CPPTEFC[β3hK](DOTA)-OH
modifications: disulfide 1-7
SMILES: CCCCCC(=O)N[C@H]1CSSC[C@@H](C(=O)N[C@@H](CCCCNC(=O)CN2CCN(CC(=O)O)CCN(CC(=O)O)CCN(CC(=O)O)CC2)CC(=O)O)NC(=O)[C@H](Cc2ccccc2)NC(=O)[C@H](CCC(=O)O)NC(=O)[C@H]([C@@H](C)O)NC(=O)[C@@H]2CCCN2C(=O)[C@@H]2CCCN2C1=O
B9: compound DOTA-Nle-[Cys-Pro-Pro-Thr-Glu-Phe-Cys]-Asp-NH2 (1004) (peptide)
peptide: CPPTEFCD
HELM: PEPTIDE1{[O=C(O)CN1CCN(CC(=O)O)CCN(CC(=O)[*:2])CCN(CC(=O)O)CC1].[Nle].C.P.P.T.E.F.C.D.[am]}$PEPTIDE1,PEPTIDE1,3:R3-9:R3$$$V2.0
SMILES: CCCC[C@H](NC(=O)CN1CCN(CC(=O)O)CCN(CC(=O)O)CCN(CC(=O)O)CC1)C(=O)N[C@H]1CSSC[C@@H](C(=O)N[C@@H](CC(=O)O)C(N)=O)NC(=O)[C@H](Cc2ccccc2)NC(=O)[C@H](CCC(=O)O)NC(=O)[C@H]([C@@H](C)O)NC(=O)[C@@H]2CCCN2C(=O)[C@@H]2CCCN2C1=O
B10: compound H-Met-[Cys-Pro-Pro-Thr-Glu-Phe-Cys]-Asp-His-Phe-Arg-Asp-NH2 (1001) (peptide)
peptide: MCPPTEFCDHFRD
HELM: PEPTIDE1{M.C.P.P.T.E.F.C.D.H.F.R.D.[am]}$PEPTIDE1,PEPTIDE1,2:R3-8:R3$$$V2.0
SMILES: CSCC[C@H](N)C(=O)N[C@H]1CSSC[C@@H](C(=O)N[C@@H](CC(=O)O)C(=O)N[C@@H](Cc2c[nH]cn2)C(=O)N[C@@H](Cc2ccccc2)C(=O)N[C@@H](CCCNC(=N)N)C(=O)N[C@@H](CC(=O)O)C(N)=O)NC(=O)[C@H](Cc2ccccc2)NC(=O)[C@H](CCC(=O)O)NC(=O)[C@H]([C@@H](C)O)NC(=O)[C@@H]2CCCN2C(=O)[C@@H]2CCCN2C1=O

How the values were obtained:
[1] = target: Recombinant human FAP (R&D systems, #3715-SE) (human, UniProt Q12884 26-760); test: cell-based or functional assay
[2] = target: T1, fibroblast activation protein (FAP) on FAP-expressing human WI-38 fibroblasts (human, UniProt Q12884 1-760); test: competitive FACS on WI-38 cells vs 3 nM Cy5-labeled probe; A = pIC50 >7.0
T1 construct: Endogenous FAP on WI-38 cells (ECACC) in the FACS assay; also called human FAP
Description: FAP-expressing human WI-38 fibroblasts (ECACC) were cultured in EMEM including 15% fetal bovine serum, 2 mM L-Glutamine and 1% Non-essential amino acids. Cells were detached with Accutase (Biolegend, #BLD-423201) and washed in FACS buffer (PBS including 1% FBS). Cells were diluted in FACS buffer to a final concentration of 100.000 cells per ml and 200 μl of the cell suspension are transferred to a u-shaped non-binding 96-well plate (Greiner). […] Cell were washed twice with FACS buffer and resuspended in 200 μl FACS buffer. Cells were analyzed in an Attune NxT flow cytometer. Median fluorescence intensities (Cy5 channel) was calculated by Attune NxT software and plotted against peptide concentrations. Four parameter logistic (4PL) curve fitting and pIC50 calculations were performed using ActivityBase software.

Binder | pIC50 Category (Activity), FRET-based FAP protease activity assay [1] [pIC50] | pIC50 Category (FACS) [2] [pIC50]
Buur-CPPTQFCDK(DOTA)-NH2 (linker 1-7 via mli) [compound Buur-[Cys(mli)-Pro-Pro-Thr-Gln-Phe-Cys]-Asp-Lys(DOTA)-NH2 (2014)] | > 7 | > 7
Hexanoyl-[hCys]PPTQF[hCys]D-NH2 (disulfide 1-7) [compound Hex-[Hcy-Pro-Pro-Thr-Gln-Phe-Hcy]-Asp-NH2 (2002)] | > 7 | > 7
B1 | > 7 | > 7
B2 | > 7 | > 7
B3 | > 7 | > 7
B4 | > 7 | > 7
B5 | > 7 | > 7
B6 | > 7 | > 7
B7 | > 7 | > 7
B8 | > 7 | > 7
{DOTA-Ttds}-[Nle]CPPTQFCD-NH2 (linker 2-8 via mli) [compound DOTA-Ttds-Nle-[Cys(mli)-Pro-Pro-Thr-Gln-Phe-Cys]-Asp-NH2 (2005)] | > 7 | > 7
Hexanoyl-CPPTEFCDHFRD-NH2 (disulfide 1-7) [compound Hex-[Cys-Pro-Pro-Thr-Glu-Phe-Cys]-Asp-His-Phe-Arg-Asp-NH2 (1002)] | > 7 | > 7
Hexanoyl-CPPTQFCD-NH2 (linker 1-7 via mli) [compound Hex-[Cys(mli)-Pro-Pro-Thr-Gln-Phe-Cys]-Asp-NH2 (2001)] | > 7 | > 7
{DOTA-Ttds}-[Nle]CPPTEFCD-NH2 (linker 2-8 via mli) [compound DOTA-Ttds-Nle-[Cys(mli)-Pro-Pro-Thr-Glu-Phe-Cys]-Asp-NH2 (2007)] | > 7 | –
B9 | > 7 | –
Hexanoyl-CPPTEFCD-NH2 (linker 1-7 via mli(DOTA-Ttd)) [compound Hex-[Cys(mli(DOTA-Ttd))-Pro-Pro-Thr-Glu-Phe-Cys]-Asp-NH2 (2020)] | > 7 | –
{DOTA-Ttds}-[Nle]CPPTEFCD-NH2 (disulfide 2-8) [compound DOTA-Ttds-Nle-[Cys-Pro-Pro-Thr-Glu-Phe-Cys]-Asp-NH2 (1003)] | > 7 | –
B10 | > 7 | > 7
{DOTA-O2Oc}-[Nle]CPPTQFCD-NH2 (linker 2-8 via mli) [compound DOTA-O2Oc-Nle-[Cys(mli)-Pro-Pro-Thr-Gln-Phe-Cys]-Asp-NH2 (2004)] | > 7 | > 7
{DOTA}-[Nle]CPPTQFCD-NH2 (linker 2-8 via mli) [compound DOTA-Nle-[Cys(mli)-Pro-Pro-Thr-Gln-Phe-Cys]-Asp-NH2 (2003)] | > 7 | > 7
{DOTA-Ttds}-[Nle]CPPTEFCD[4Amb]R-NH2 (disulfide 2-8, By the running order it belongs to 1007) [compound DOTA-Ttds-Nle-[Cys-Pro-Pro-Thr-Glu-Phe-Cys]-Asp-Pamb-Arg-NH2 (1007)] | > 7 | > 7
{DOTA-Ttds}-[Nle]CPPTQFCD[4Amb]R-NH2 (linker 2-8 via Maleimide(3,4-diyl)) [compound DOTA-Ttds-Nle-[Cys(mli)-Pro-Pro-Thr-Gln-Phe-Cys]-Asp-Pamb-Arg-NH2 (2006)] | > 7 | > 7
Hexanoyl-CPPTQFCDK(DOTA)-NH2 (linker 1-7 via mli) [compound Hex-[Cys(mli)-Pro-Pro-Thr-Gln-Phe-Cys]-Asp-Lys(DOTA)-NH2 (2012)] | > 7 | > 7
